Assays:
human CD3 [1] = target: T1, human CD3 (human, UniProt P07766 23-207; P09693 23-182; P04234 22-171); assay: cell-based or functional assay
human CD3 [2] = target: T1, human CD3; assay: flow cytometry, hybridoma supernatant on CD3+ Jurkat cells
Method: Cells were stained with either negative control mouse IgG (Jackson Immunoresearch cat #115-000-003) or an anti-GFP 3E6 mAb supernatant or tested hybridoma supernatant. Specific binding was reflected by the increase in the mean fluorescent intensity of antibody binding to Jurkat T-cells (FIGS. 1A to 1F, grey histograms) compared to the Jurkat CD3 negative cell line J.RT3-T3.5 (FIGS. 1A to 1F, open histograms). AF488 labeled positive control mAb OKT3 was also analyzed.

human CD3 [3] = target: T1, human CD3; assay: apparent KD (KDapp), flow cytometry titration on Jurkat cells
Method: Unless otherwise stated, all media are kept are 4° C. and all incubations are performed on wet ice. Exponentially growing Jurkat cells were centrifuged and resuspended in complete medium at a cell density of 2×10⁶ cells/mL. Fifty μL/well of cells were distributed in a polypropylene v-bottom 96 well plate and serial 1/3 dilutions of purified mAbs starting at 300 nM were added and incubated for 2 hours. Cells were washed twice by centrifugation and further incubated with a FITC labeled F(ab′)2 goat anti-mouse antibody (Fc specific, #115-096-071, Jackson Immunoresearch, Cedarlane, Burlington, ON) for an hour. Cells were washed and re-suspended in medium containing Propidium iodide to exclude dead cells from analysis. Samples were filtered through a 60 μm nylon mesh filter plate (Millipore, Ireland) to remove cell aggregates. Flow cytometry analyses were performed on 2,000 viable single-cells events gated on forward scattering, side scattering parameters and propidium iodide dye exclusion using a BD-LSRFortessa flow cytometer (Becton-Dickinson Biosciences, CA, USA) and a standard filter set using BD FACSDiva™ acquisition software, according to manufacturer's instructions.

Cynomolgus CD3 = target: T2, Cynomolgus CD3 (Cynomolgus, UniProt Q95LI5 22-198; Q95LI7 23-181; Q95LI8 22-171); assay: apparent KD (KDapp), flow cytometry titration on cynomolgus HSC-F T cell line
T2 construct: whole, on cells; also called CD3 on Cynomolgus PBMCs; CD3 on HSC-F Cynomolgus T cell line
T2 sequence (Q95LI5 22-198, chain 1 of 3): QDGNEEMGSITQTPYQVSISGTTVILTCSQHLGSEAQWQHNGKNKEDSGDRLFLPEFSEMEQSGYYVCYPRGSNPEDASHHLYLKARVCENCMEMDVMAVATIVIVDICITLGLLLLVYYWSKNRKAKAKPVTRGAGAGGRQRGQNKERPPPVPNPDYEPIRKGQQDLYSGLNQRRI
T2 sequence (Q95LI7 23-181, chain 2 of 3): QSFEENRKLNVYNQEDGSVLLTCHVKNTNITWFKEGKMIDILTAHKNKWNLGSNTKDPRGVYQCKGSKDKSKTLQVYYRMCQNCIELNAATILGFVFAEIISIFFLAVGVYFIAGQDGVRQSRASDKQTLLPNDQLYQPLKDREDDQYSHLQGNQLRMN
T2 sequence (Q95LI8 22-171, chain 3 of 3): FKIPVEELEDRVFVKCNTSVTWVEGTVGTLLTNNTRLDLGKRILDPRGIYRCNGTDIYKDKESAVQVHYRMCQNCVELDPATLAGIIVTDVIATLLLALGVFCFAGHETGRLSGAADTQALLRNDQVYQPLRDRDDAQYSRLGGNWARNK
Method: To characterize potential cross-reactivity of the anti-human CD3 mAbs to NHP T cells, dose response flow cytometry titration studies were performed on both freshly obtained Cynomolgus PBMCs (Comparative Medicine and Animal Resources Centre—McGill University) or the Cynomolgus derived T cell line, HSC-F (Non-Human Primate Reagent Resource—NIH). Binding studies on fresh Cynomolgus PBMCs was performed on a subset of anti-CD3 mAbs (FIG. 4) whereas the Herpesvirus saimiri immortalized Cynomolgus T cell line HSC-F was employed for further evaluations (FIGS. 5A to 5C). KDapp values were calculated using a non-linear regression model of one-site binding with Hill slope (GraphPad Prism) and tabulated (Table 3b). Similar KDapp values for anti-CD3 mAb 1E2 obtained from binding to fresh Cynomolgus PBMCs (KDapp=0.28 nM) or the HSC-F T cell line (KDapp=0.39 nM) indicated the HSC-F cell line was a suitable surrogate for ex vivo NHP T cells.
HSC-F T cells obtained from the Non-Human Primate Reagent Resource (NIH) were maintained in culture in RPMI media containing 20% FBS and 40 IU/mL recombinant human IL2. 100K HSC-F cells in logarithmic cell growth were treated with graded doses of the anti-CD3 mAbs starting at 100 nM in staining buffer (SB; PBS/1% BSA/0.01% NaN3) for 2 hours at 4° C. in 96 w V-bottom plates. Following plate washing with SB, the cell pellets were resuspended with 25 μL of goat (Fab′)₂ anti-mouse IgG (H+L)− APC secondary antibody (final 5 μg/mL), incubated for 30 minutes at 4° C., followed by flow cytometry analysis. The commercial NHP cross-reactive SP34.2 anti-CD3 mAb (BD Biosciences), recombinant anti-human OKT-3 IgG2b (in house produced) and non-specific mIgG were employed as controls. 20K live events were acquired on a BD LSRFortessa flow analyzer and mean fluorescence intensities (MFI) calculated after subtraction of secondary antibody alone values. Using GraphPad Prism software, the data were analyzed using a one site specific binding with Hill slope non-linear regression model to calculate KDapp and BMax values (See Table 2).

human CD3 [4] = target: T1, human CD3; assay: flow competition on Jurkat, 100 nM unlabeled mAb; competitor AF488-SK7 1.5 nM
Method: (§1) In order to evaluate whether anti-CD3 monoclonal antibodies bind to the same epitope region, flow cytometry competition experiments on Jurkat cells were performed.
(§2) To that effect, a fixed concentration of the indicated AF488-labeled mAb were incubated with 100 nM of unlabeled monoclonal antibodies to assess if their binding capacity was impaired in presence of unlabeled mAbs. […] The AF488-OKT3 mIgG2b was labeled in-house using AlexaFluor488 protein labelling kit (Invitrogen #A10235) following manufacturer's instruction. The free dye removal step was done using Zeba™ Spin Desalting Columns, 7K MWCO (Thermo Scientific #89890). The final product was analyzed by UPLC-SEC to ensure the integrity of the labeled mAb.

human CD3 [5] = target: T1, human CD3; assay: flow competition on Jurkat, 100 nM unlabeled mAb; competitor AF488-UCHT1 5 nM
Method: as §1, §2

human CD3 [6] = target: T1, human CD3; assay: apparent KD (KDapp), flow cytometry titration on purified primary human T cells
Method: The binding characteristics of the purified anti-CD3 mAbs were assessed in titration studies on purified human primary T cells from different donor samples. Fresh ex vivo peripheral blood mononuclear cells (PBMCs) were obtained via density centrifugation over Ficoll-Paque using standard procedures and untouched T cell fractions obtained from PBMCs by negative pan-T cell selection and magnetic cell sorting. Starting from 300 nM concentrations of the anti-CD3 mAbs, eight point binding curves were generated from the resultant mean fluorescence intensity (MFI) values obtained through detection of labelled secondary antibody to bound CD3 in flow cytometry experiments (FIGS. 3A and 3B). Both commercial mouse anti-human CD3 mAb (OKT-3; Biolegend) and an in house generated IgG1 version of OKT-3 were employed as positive controls together with a non-specific mouse IgG serving as a negative binding control. Following curve fit analysis using one-site specific binding with Hill slope, the KDapp (concentration needed to achieve a half-maximum binding at equilibrium) for each mAb was calculated (Table 2).
Eight point binding titrations were performed with the anti-CD3 mAbs starting at either 300 or 100 nM on freshly purified human T cells obtained through negative selection from PBMC fractions. Briefly, 1×10⁵ human T cells (50 μL of staining buffer (SB; PBS/1% BSA/0.01% NaN3) were incubated with graded dilutions of the anti-CD3 mAbs in SB ([…]) for 2 hours at 4° C. in 96 w U-bottom plates, followed by plate washing with SB ([…]). Cell pellets were resuspended with 25 μL of a 0.25 mg/mL solution of the goat (Fab′)₂ anti-mouse IgG (H+L)− APC secondary antibody in SB, incubated at 4° C. (30 min.), washed 1× with SB, and resuspended for flow analysis. Recombinant anti-human OKT-3 IgG2b (in house produced) and non-specific mIgG were employed similarly as positive and negative controls respectively. 10K live events were acquired on a BD LSRFortessa flow analyzer and mean fluorescence intensities (MFI) calculated after subtraction of secondary antibody alone values. Using GraphPad Prism software, the data were analyzed using a one site specific binding with Hill slope non-linear regression model to calculate KDapp and BMax values (See Table 2).

human CD3 [7] = target: T1, human CD3; assay: flow competition on Jurkat, 100 nM unlabeled mAb; competitor AF488-SP34.2 20 nM
Method: as §1, §2

human CD3 [8] = target: T1, human CD3; assay: flow competition on Jurkat, 100 nM unlabeled mAb; competitor AF488-OKT-3 mIgG2b 1.5 nM
Method: as §1, §2

Binder	% max ref. OKT3 (dTomato activation) (human CD3 [1]) [%]	EC50 of dTomato induction (CD69 promoter), Jurkat-CD69-dTomato cells, 24 h (human CD3 [1]) [µg/mL]	MFI (human CD3 [2]) [MFI]	Kd (human CD3 [3]) [nM]	Kd (Cynomolgus CD3) [nM]	% residual fluorescence of labeled mAb (human CD3 [4]) [%]	% residual fluorescence of labeled mAb (human CD3 [5]) [%]	Kd (human CD3 [6]) [nM]	% residual fluorescence of labeled mAb (human CD3 [7]) [%]	% residual fluorescence of labeled mAb (human CD3 [8]) [%]
F332-7E3 (antibody, mouse IgG2a, V domains shown, also called F332-7E3-2) VH: QVQLQQPGAELGKPGTSVKLSCKASGYTFTSYWIHWVKQRPGQGLEWIGNINPNSGSINYNEKFKSKATLTVDKSSSTAYMQLSTLTSEDFAVYYCTRDTSGQYYFDYWGQGTTLTVSS VL: DIVMSQSPSSLAVSAGEKVTMSCKSSQSLLNSRTRKNYLAWYQQKPGQSPKLLIYWASTRESGVPDRFTGSGSGTDFTLTISSVQAEDLAVYYCKQSYHLRTFGGGTKLEIK	75	0.24	354	1.3	0.31	45	67	0.22	12	79
F332-8F7 (antibody, mouse IgG2a, V domains shown, also called F332-8F7-3) VH: QVQLQQPGAELGKPGTSVKLSCKASGYTFTSYWIHWVKQRPGQGLEWIGNINPNSGSTNYNEKFKNKATLTVDKSSSTASMQLSTLTSEDSAVYYCTRDISGQYYFDYWGQGTTLTVSS VL: DIVMSQSPSSLAVSTGGEVTMSCKSSQSLLNSRTRKNYLAWYQQKPGQSPKLLIYWASTRESGVPDRFTGSGSGTDFTLTISSVQAEDLAVYYCIQSYSLRTFGGGTKLGIK	80	0.22	312	0.8	0.97	39	59	0.26	10	87
F332-12F6 (antibody, mouse IgG2a, V domains shown, also called F332-12F6-2) VH: QVQLQQPGAELGKPGTSVKLSCKASGYTFTSYWIHWVKQRPGQGLEWIGNINPNSGSTNYNEKFKSKATLTVDKSSSTAYMQLSTLTSEDSAVYYCTRDISGQYYFDYWGQGTTLTVSS VL: DIVMSQSPSSLAVSAGEKVTMSCKSSQSLLNSRTRKSYLAWYQQKPGQSPKLLIYWASTRESGVPDRFTGSGSGTDFTLTISSVQAEDLAVYYCIQSYNLRTFGGGTKLEIK	87	0.25	369	0.6	0.61	42	63	0.2	7	82

Results, then the binder that gave them:

% max ref. OKT3 (dTomato activation) (human CD3 [1]) [%]	EC50 of dTomato induction (CD69 promoter), Jurkat-CD69-dTomato cells, 24 h (human CD3 [1]) [µg/mL]	MFI (human CD3 [2]) [MFI]	Kd (human CD3 [3]) [nM]	Kd (Cynomolgus CD3) [nM]	% residual fluorescence of labeled mAb (human CD3 [4]) [%]	% residual fluorescence of labeled mAb (human CD3 [5]) [%]	Kd (human CD3 [6]) [nM]	% residual fluorescence of labeled mAb (human CD3 [7]) [%]	% residual fluorescence of labeled mAb (human CD3 [8]) [%]	Binder
109	0.27	326	0.7	0.64	49	73	0.61	10	93	F332-5D4 (antibody, mouse IgG2b, V domains shown, also called F332-5D4-2; F332-5D4 (5F8)) VH: QVQLQQPGAELGKPGTSVKLSCKASGYTFTSYWMHWVKQRPGQGLEWIGNINPNGGDSNYNEKFKSKATLTVDMSSSTAYMQLSTLTSEDSAVYYCTRDISGQYYFDFWGQGTSLTVFS VL: DILMSQSPSSLAVSAGEQVTMSCKSSQSLLNSRTRKNYLAWYQQKPGQSPKLLIFWASTRKSGVPDRFTGSGSGTYFTLTINSVQTEDLAVYYCTQSYSLRTFGGGTKLEIK
97	0.25	302	0.6	0.28	53	79	0.23	9	86	F332-7B7 (antibody, mouse IgG2a, V domains shown, also called F332-7B7-2) VH: QVQLQQPGTELGKPGTSVKLSCKASGYTFTNYWMHWVKQRPGQGLEWIGNINPNSGSTNYNQKFKSKATLTLDKSSSTAYMQFSTLTSEDSAVYYCTRDSSGQYYFDYWGQGTTLTVSS VL: DIVMSQSPSSLAVSAGEKVTMSCKSSQSLLNSRTRKNYLAWYQQKPGQSPKLLIYWASTRESGVPDRFTGSGSGTDFTLTISSVQAEDLAVYYCIQSFHLRTFGGGTKLEIK

Source: patent publication US20250051443A1 (NATIONAL RESEARCH COUNCIL OF CANADA, published 2025)
